Laboratory results as given in patent publication US20230192897A1 (NUMAB THERAPEUTICS, published 2023).

Tests used:
[1] = molecular target: T1, biotinylated human PDL1 (human, UniProt Q9NZQ7 19-238, limits assumed, biotinylated); assay: competition ELISA B7.1/PDL1
T1 construct: also called biotinylated PDL1
Method in brief: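 IC₅₀ was derived by four-parameter logistic fitting of reference-subtracted A450/690 readings. The signal came from streptavidin-polyHRP40 (10 ng/ml) with a 6-minute TMB reaction detecting biotinylated PDL1 bound to the plate. Pre-mixed samples sat 1 h at RT before a 1.5 h plate incubation.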

[2] = molecular target: T2, cynomolgus PDL1-Fc chimeric protein (cynomolgus monkey, UniProt G7PSE7 19-239); assay: SPR
T2 construct: PDL1-Fc chimeric protein from different species captured on the chip
Method in brief: (§1)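 Kinetics were fitted with a one-to-one Langmuir model to give apparent ka, kd and KD. Binders at 0.12-90 nM (three-fold series) flowed 3 min, with 10 min dissociation and 3 M MgCl₂ regeneration, on a Biacore T200.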

[3] = molecular target: T3, Fc tagged human CD137 (human, UniProt Q07011 24-186); assay: SPR
T3 construct: also called CD137-Fc chimeric protein
Method in brief: as §1

[4] = molecular target: T4, Fc tagged human PDL1 (human, UniProt Q9NZQ7 19-239); assay: SPR
T4 construct: Bought (Sino Biological, cat. 10084-H02H); captured on the SPR chip; also called PDL1-Fc chimeric protein
Method in brief: as §1

[5] = molecular target: cynomolgus CD137-Fc chimeric protein (cynomolgus monkey, UniProt A9YYE7 24-186); assay: SPR
Method in brief: as §1

[6] = molecular target: T5, CD137 on Jurkat NFkB reporter cells (human, UniProt Q07011 24-255); assay: cell-based or functional assay
[7] = molecular target: T5, CD137 on Jurkat NFkB reporter cells; assay: cell-based or functional assay; remark: listed apart in the source
[8] = molecular target: T1, biotinylated human PDL1; assay: competition ELISA PD-1/PDL1
[9] = molecular target: human PDL1 on cells (human, UniProt Q9NZQ7 19-290); assay: cell-based or functional assay
[10] = molecular target: T6, human serum albumin (human, UniProt P02768 25-609); assay: SPR, SA coupled to chip, pH 5.5
T6 construct: Coupled directly to the CM5 chip; also called HSA; human SA
Procedure: Affinity of molecules to serum albumin (SA) of the different species was determined by SPR measurements using a Biacore T200 device (GE Healthcare). SA was directly coupled to a CM5 sensor chip (GE Healthcare) using amine coupling chemistry. […] The assay was run in a 1× PBS-Tween buffer at pH 5.5.

[11] = molecular target: T5, CD137 on Jurkat NFkB reporter cells; assay: cell-based or functional assay; remark: listed apart in the source
[12] = molecular target: T5, CD137 on Jurkat NFkB reporter cells; assay: cell-based or functional assay; remark: listed apart in the source
[13] = molecular target: T5, CD137 on Jurkat NFkB reporter cells; assay: cell-based or functional assay; remark: listed apart in the source

B1: PRO1480 (other)
chain: DIQMTQSPASLSASVGDRVTITCQASQSIGTYLAWYQQKPGKPPKLLIYRAFILASGVPSRFSGSGSGTDFTLTISSLQPEDFATYYCQSNFYSDSTTIGPNAFGTGTKVTVLGGGGGSEVQLVESGGGLVQPGGSLRLSCAASGFSFSANYYPCWVRQAPGKGLEWIGCIYGGSSDITYDANWTKGRFTISRDNSKNTVYLQMNSLRAEDTAVYYCARSAWYSGWGGDLWGQGTLVTVSSGGGGSGGGGSGGGGSGGGGSIQMTQSPSSLSASVGDRVTITCQASQSISNRLAWYQQKPGKAPKLLIYSASTLASGVPSRFSGSGSGTDFTLTISSLQPEDFATYYCQSTYYGNDGNAFGTGTKVTVLGGGGGSEVQLVESGGGLVQPGGSLRLSCAASGFSFNSDYWIYWVRQAPGKGLEWIASIYGGSSGNTQYASWAQGRFTISRDNSKNTVYLQMNSLRAEDTAVYFCARGYVDYGGATDLWGQGTLVTVSSGGGGSGGGGSIQMTQSPSSLSASVGDRVTITCQSSESVYSNNQLSWYQQKPGQPPKLLIYDASDLASGVPSRFSGSGSGTDFTLTISSLQPEDFATYYCAGGFSSSSDTAFGGGTKLTVLGGGGGSGGGGSGGGGSGGGGSEVQLVESGGGLVQPGGSLRLSCAASGFSLSSNAMGWVRQAPGKGLEYIGIISVGGFTYYASWAKGRFTISRDNSKNTVYLQMNSLRAEDTATYFCARDRHGGDSSGAFYLWGQGTLVTVSS
notes: trispecific scDb-scFv; also called 38-27-A11 sc02 scDb-i/37-20-B03 sc09.1 scDb-o/19-01-H04 sc03 scFv
In the case of B1, the IC50 [1] is reported as 0.0112 µg/mL, the “rel. IC50 (IC50 avelumab/IC50 test)” value [1] is reported as 1.32 fold and the Kd [2] is reported as 8.5 pM. It also gave a koff [2] of 3.4e-05 s⁻¹, a kon [2] of 4e+06 M⁻¹ s⁻¹ and a Kd [3] of 370 pM. For the same binder, the koff [3] was 0.00022 s⁻¹, the kon [3] was 580000 M⁻¹ s⁻¹ and the kon [4] was 3.5e+06 M⁻¹ s⁻¹. It also gave a Kd [5] of 470 pM, a koff [5] of 0.0003 s⁻¹ and a kon [5] of 640000 M⁻¹ s⁻¹. For the same binder, the “IC50 (ng/ml) (EC50 in Table 16C), NFkB reporter, HCC827 + IFNg, 24 h, +HSA” value [6] was 4.67 ng/mL, the “rel. IC50 (PRO1186/test), 24 h” value [6] was 1 fold and the “Area under the curve (calculated using PRO885 normalized data), first line (6 h by the order of the upper part)” value [7] was 232. The “Area under the curve (calculated using PRO885 normalized data), second line (24 h by the order of the upper part)” value [7] was 261, the “EC50 [ng/ml], NF-kB reporter, HCC827 + IFNg, +HSA, 6 h” value [7] was 6.44 ng/mL and the “IC10/EC90 ratio, first line (6 h by the order of the upper part)” value [7] was 43. For the same binder, the “IC10/EC90 ratio, second line (24 h by the order of the upper part)” value [7] was 360, the “Maximum NF-kB activation (rel. to PRO1186) [%], first line (6 h by the order of the upper part)” value [7] was 114% and the “Maximum NF-kB activation (rel. to PRO1186) [%], second line (24 h by the order of the upper part)” value [7] was 121%. The “rel. Area under the curve (AUCsample/AUCPRO1186), first line (6 h by the order of the upper part)” value [7] was 1.2 fold, the “rel. Area under the curve (AUCsample/AUCPRO1186), second line (24 h by the order of the upper part)” value [7] was 1.29 fold and the “rel. EC50 (EC50, PRO1186/EC50, sample), NF-kB reporter, 6 h” value [7] was 1.93 fold. The “rel. EC50 (EC50, PRO1186/EC50, sample), NF-kB reporter, 24 h” value [7] was 1 fold, the “rel. IC10/EC90 (ratio of sample/ratio of PRO1186), first line (6 h by the order of the upper part)” value [7] was 0.54 fold and the “rel. IC10/EC90 (ratio of sample/ratio of PRO1186), second line (24 h by the order of the upper part)” value [7] was 1.86 fold. For the same binder, the IC50 [8] was 0.00227 µg/mL, the “rel. IC50 (IC50 avelumab/IC50 test)” value [8] was 1 fold and the “IC50 (ng/ml), NF-AT potency assay, +HSA” value [9] was 84.8 ng/mL. The “rel. IC50 (avelumab/test), +HSA” value [9] was 0.61 fold and the kon [10] was 327000 M⁻¹ s⁻¹.

B2: PRO1058 (other)
chain: DIQMTQSPSSLSASVGDRVTITCQASQSINDYLAWYQQKPGKAPKLLIYKASTLASGVPSRFSGSGSGTDFTLTISSLQPEDFATYYCQQGYIITDIDNVFGTGTKVTVLGGGGGSQVQLQESGPGLVKPSETLSLTCKVSGFSFNNDYDMCWIRQPPGKGLEWIGCIDTGDGSTYYASWAKGRVTISVDSSKNQFSLKLSSVTAADTAVYYCAREAASSSGYGMGYFDLWGQGTLVTVSSGGGGSGGGGSGGGGSGGGGSIQMTQSPSSLSASVGDRVTITCQSSQSVYDNNWLAWYQQKPGKAPKLLIYRASNLASGVPSRFSGSGSGTDFTLTISSLQPEDFATYYCQGTYLSSNWYWAFGTGTKVTVLGGGGGSQVQLQESGPGLVKPSETLSLTCKVSGFSFSSGYDMCWIRQPPGKGLEWIGCVVAGSVDITYYASWAKGRVTISVDSSKNQFSLKLSSVTAADTAVYYCARKDAYSDAFNLWGQGTLVTVSSGGGGSGGGGSVVMTQSPSSLSASVGDRVTITCQASQIISSRSAWYQQKPGQPPKLLIYQASKLASGVPSRFSGSGSGTDFTLTISSLQPEDFATYYCQCTYIDSNFGAFGGGTKLTVLGGGGGSGGGGSGGGGSGGGGSEVQLVESGGGLVQPGGSLRLSCAASGFSFSSSYWICWVRQAPGKGLEWVGCVFTGDGTTYYASWAKGRFTISRDNSKNTVYLQMNSLRAEDTATYFCARPVSVYYYGMDLWGQGTLVTVSS
notes: trispecific scDb-scFv; also called 38-27-C05 sc01 scDb-i/33-03-G02 sc01 scDb-o/23-13-A01-sc03, sk17sh4
With B2 the koff [3] was 0.0021 s⁻¹, the binding result [4] was “binds” and the “IC50 (ng/ml), NFkB reporter, CHO-PD-L1, 24 h, +HSA” value [11] was 121 ng/mL. The “max. activation (%), NFkB reporter, CHO-PD-L1, 24 h, +HSA” value [11] was 36.2%, the “rel. IC50 (urelumab/test), NFkB reporter, CHO-PD-L1, 24 h, +HSA” value [11] was 0.64 fold and the “EC50, NFkB reporter, CHO-PDL1, 24 h, +HSA” value [12] was 0.121 µg/mL. For the same binder, the “EC50, NFkB reporter, CHO-PDL1, 6 h, +HSA” value [13] was 0.0709 µg/mL.
